Test [1] deals with T1, PhoCle0.3 large fragment after photocleavage (~20 kDa remainder of the PhoCle domain).
T1 chain: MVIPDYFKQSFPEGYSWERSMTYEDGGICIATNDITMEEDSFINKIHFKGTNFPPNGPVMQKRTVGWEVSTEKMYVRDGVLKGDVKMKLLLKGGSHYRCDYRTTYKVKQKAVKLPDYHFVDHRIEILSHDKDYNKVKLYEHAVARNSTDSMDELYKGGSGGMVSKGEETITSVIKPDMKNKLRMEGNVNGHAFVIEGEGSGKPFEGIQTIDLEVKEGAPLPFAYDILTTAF
Briefly: decay of red fluorescence/absorbance following photocleavage.

In test [2] the target is T2, PhoCle0.1 large fragment after photocleavage (remainder of the protein).
T2 chain: T1 chain with Y101F, T171M, N180I
The experiment in a line: spectroscopic and SDS-PAGE analyses of the protein before and after illumination.

Residue numbers refer to the chain shown, from its start.

As to HYGNRVFTKYPR (modifications not checked) [PhoCle0.3 small chromophore-containing peptide fragment after photocleavage], the t0.5 of peptide dissociation after photocleavage in test [1] worked out at 120 s.
Regarding HYGNRVFTKYPR (modifications not checked) [PhoCle0.1 small chromophore-containing peptide fragment after photocleavage], in test [2], the t0.5 of spontaneous dissociation after photocleavage is 500 s.

The values are drawn from patent publication US20170190749A1.
